{"source": "patent US20050074865A1", "about": "(COMPOUND THERAPEUTICS, published 2005)", "binders": {"B1": {"name": "scFvαHA, single chain antibody derived from monoclonal antibody mAb26/9 (address domain alone, expressed from pSecTag2A with C-terminal myc and His6 tags) (scFv, not shown: small tags and cut ends)", "scFv": "MEVQLLESGGDLVKPGGSLKLSCAASGFTFSTYGMSWVRQTPDKRLEWVATISNGGGYTYYPDSVKGRFTISRDNAKNTLYLQMSSLKSEDTAMYYCARRERYDENGFAYWGRGTLVTVSAGGGGSGGGGSGGGGSDIVMSQSPSSLAVSVGEKITMSCKSSQSLFNSGKQKNYLTWYQQKPGQSPKLLIYWASTRESGVPDRFTGSGSGTDFTLTISSVKAEDLAVYYCQNDYSHPLTFGGGTKLEIKRADAAPT", "notes": "also called scHA; scFv anti-HA"}, "B2": {"name": "sp55, full-length ecto-domain of human TNFR-1 (residues 30-211) with C-terminal myc and His6 tags, expressed from pSecTag2A (receptor)", "chain": "DAAQPARRAVRSLVPHLGDREKRDSVCPQGKYIHPQNNSICCTKCHKGTYLYNDCPGPGQDTDCRECESGSFTASENHLRHCLSCSKCRKEMGQVEISSCTVDRDTVCGCRKNQYRHYWSENLFQCFNCSLCLNGTVHLSCQEKQNTVCTCHAGFFLRENECVSCSNCKKSLECTKLCLPQIENVKGTEDSGTTRGGPEQKLISEEDLNSAVDHHHHHH", "notes": "also called sp55 address domain; p55FL"}}, "key": {"[1]": {"target": "T1, biotinylated target peptide NH2-YPYDVPDYAGSGDYKAFD containing the high affinity HA epitope (also: biotinylated, position not given here)", "T1 construct": "also called the peptide", "T1 peptide": "YPYDVPDYAGSGDYKAFD", "test": "sandwich ELISA: component captured on anti-myc (mAb 9E10) plates, biotinylated peptide detected with streptavidin-HRP"}, "[2]": {"target": "T2, S-TNF, human TNFα fusion protein with an N-terminal S-Tag (human, UniProt P01375 77-233)", "T2 construct": "Made by the applicants; not shown: 15 amino acid S-Tag peptide (Novagen)", "T2 sequence (P01375 77-233)": "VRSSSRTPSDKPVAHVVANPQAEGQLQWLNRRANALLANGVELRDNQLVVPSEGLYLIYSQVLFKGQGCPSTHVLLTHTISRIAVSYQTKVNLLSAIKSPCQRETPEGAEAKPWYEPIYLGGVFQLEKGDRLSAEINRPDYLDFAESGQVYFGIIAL", "test": "indirect ELISA: sp55 from conditioned medium captured on Ni-NTA wells, S-TNF at 1 µg/mL, detection with S-protein-HRP, absorbance at 370 nm"}}, "note": "Where no end group is shown, it is not given here.", "data": [{"binder": "B1", "values": [{"measurement": "binding result", "setting": "[1]", "result": "binds"}]}, {"binder": "B2", "values": [{"measurement": "fold elevation of S-TNF binding over non-specific binding in control samples", "setting": "[2]", "result": 3, "unit": "fold"}]}]}
